Measurements taken from patent US20230049152A1 (Genentech, published 2023).

Assays:
human CCR8 = biological target: T1, human CCR8 (human, UniProt P51685 1-355); assay: flow cytometry, CHO-huCCR8.Gna15 cells, relative to rb.Ab4
T1 construct: the assay field says which; also called hCCR8; huCCR8
Description: Evaluation of CCR8 binding of the humanized variants with a hIgG1 Fc involved screening by flow cytometry, and comparing the relative EC₅₀ and MFI on human CCR8 CHO cells to the parental rabbit antibodies. Specifically, stable CHO-huCCR8.Gna15 cells were stained with various concentrations (starting from 10 ug/ml or 66.66 nM, 1:4 serial dilution for total 8 concentration points) of Ab4 and Ab5 variants at 4° C. for 30 minutes, then washed twice with FACS buffer (PBS with 0.5% BSA and 0.2 mM EDTA) and followed by staining with AF647-anti-hIgG at 4° C. for 15 min. Cells were washed twice with FACS buffer, and re-suspended in FACS buffer with propidium iodide (0.5 ug/ml) and analyzed with iQue3 (Sartorius).

[1] = biological target: T2, human CCR8.CCR5 chimera ECL1 (human, UniProt P51681 86-99, limits assumed); assay: flow cytometry, 293 cells transfected with the CCR8.CCR5 chimera ECL1 with C-terminal FLAG
T2 construct: domain: ECL1; on transfected 293 cells; also called ECL1 chimera
Description: To epitope map fucosylated hu.Ab4.H12L3, the binding to chimeric forms of human CCR8 was analyzed by flow cytometry.

hCCR8 L5A = biological target: T3, hCCR8 L5A (human, UniProt P51685 1-355); assay: flow cytometry on transfected HEK 293 cells
T3 construct: alanine point mutant on transfected HEK 293 cells
Description: (§1) To epitope map fucosylated hu.Ab5.H13L1, the binding to alanine point mutations in human CCR8 was analyzed by flow cytometry.
Constructs encoding for individual alanine point mutations at positions 2-24 in hCCR8 with a C-terminal FLAG tag were generated. HEK 293 cells were transfected with constructs encoding for mutant hCCR8 or with a mock construct using transIT X2 (reagent:DNA=3:1) for 24 hrs, and surface stained with the huCCR8 antibody hu.Ab5.H13L1 (hIgG1), then fixed and permeabilized and followed by FITC-anti-Flag (Sigma F4049).

D14A = biological target: T4, D14A; assay: flow cytometry, HEK293 transfected with hCCR8 D14A with C-terminal FLAG; sheet prints [huCCR8]=0.02 ug/ml
T4 construct: single alanine mutant of hCCR8; also called hCCR8 D14A
T4 receptor chain: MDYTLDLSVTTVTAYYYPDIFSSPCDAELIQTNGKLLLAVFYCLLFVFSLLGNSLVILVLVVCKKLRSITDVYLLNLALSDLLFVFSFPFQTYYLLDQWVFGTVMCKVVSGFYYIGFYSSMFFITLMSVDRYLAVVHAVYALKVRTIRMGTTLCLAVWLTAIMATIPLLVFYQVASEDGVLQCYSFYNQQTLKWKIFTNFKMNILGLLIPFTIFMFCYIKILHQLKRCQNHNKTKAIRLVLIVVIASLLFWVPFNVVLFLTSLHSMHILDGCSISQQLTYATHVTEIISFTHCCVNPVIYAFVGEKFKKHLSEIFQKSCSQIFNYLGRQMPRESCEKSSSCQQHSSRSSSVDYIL

F21A = biological target: T5, F21A; assay: flow cytometry, HEK293 transfected with hCCR8 F21A with C-terminal FLAG; sheet prints [huCCR8]=0.02 ug/ml
T5 construct: single alanine mutant of hCCR8; also called hCCR8 F21A
T5 receptor chain: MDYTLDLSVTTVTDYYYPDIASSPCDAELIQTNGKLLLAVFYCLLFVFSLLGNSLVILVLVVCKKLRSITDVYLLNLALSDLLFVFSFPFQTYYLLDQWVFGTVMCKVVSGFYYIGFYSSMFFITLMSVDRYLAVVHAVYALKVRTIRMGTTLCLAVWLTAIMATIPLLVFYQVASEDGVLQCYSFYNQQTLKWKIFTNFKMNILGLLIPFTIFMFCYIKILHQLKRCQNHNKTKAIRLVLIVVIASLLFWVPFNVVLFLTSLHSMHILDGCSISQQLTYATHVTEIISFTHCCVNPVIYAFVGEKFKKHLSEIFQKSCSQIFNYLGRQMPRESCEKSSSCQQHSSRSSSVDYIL
Description: FIGS. 16A-16B depict the epitope maps for hu.Ab5.H13L1 (FIG. 16A) and hu.Ab4.H12L3 (FIG. 16B) mAbs.
as §1

T10A = biological target: T6, T10A; assay: flow cytometry, HEK293 transfected with hCCR8 T10A with C-terminal FLAG; sheet prints [huCCR8]=0.02 ug/ml
T6 construct: single alanine mutant of hCCR8; also called hCCR8 T10A
T6 receptor chain: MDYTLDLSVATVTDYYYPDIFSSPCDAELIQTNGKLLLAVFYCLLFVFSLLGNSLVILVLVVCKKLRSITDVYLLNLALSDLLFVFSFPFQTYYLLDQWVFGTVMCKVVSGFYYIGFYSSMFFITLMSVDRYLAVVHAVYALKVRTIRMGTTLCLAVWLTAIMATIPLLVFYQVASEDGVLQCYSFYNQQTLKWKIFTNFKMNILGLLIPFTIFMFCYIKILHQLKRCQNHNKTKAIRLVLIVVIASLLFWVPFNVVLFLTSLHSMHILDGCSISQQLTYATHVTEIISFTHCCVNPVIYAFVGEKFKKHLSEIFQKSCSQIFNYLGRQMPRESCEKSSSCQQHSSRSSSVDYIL

V12A = biological target: T7, V12A; assay: flow cytometry, HEK293 transfected with hCCR8 V12A with C-terminal FLAG; sheet prints [huCCR8]=0.02 ug/ml
T7 construct: single alanine mutant of hCCR8; also called hCCR8 V12A
T7 receptor chain: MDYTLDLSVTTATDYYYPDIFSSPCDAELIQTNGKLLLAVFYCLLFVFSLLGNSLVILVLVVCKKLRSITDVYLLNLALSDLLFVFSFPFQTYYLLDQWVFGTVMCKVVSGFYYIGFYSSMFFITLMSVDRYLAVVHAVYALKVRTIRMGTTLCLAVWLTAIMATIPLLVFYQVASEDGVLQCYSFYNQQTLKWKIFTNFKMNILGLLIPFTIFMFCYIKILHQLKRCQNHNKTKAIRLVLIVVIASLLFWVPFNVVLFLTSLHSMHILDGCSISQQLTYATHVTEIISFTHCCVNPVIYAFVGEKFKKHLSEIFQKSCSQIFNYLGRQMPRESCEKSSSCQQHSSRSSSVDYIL

B1: hu.Ab4.H1L1 (antibody, human IgG1, kappa)
heavy: not shown
light: DYQMTQSPSSLSASVGDRVTITCQASQSISSYLSWYQQKPGKRPKLLIYKASTLASGVPSRFSGSGSGTDFTLTISSLQPEDFATYYCQQGYTSSNIDNIFGGGTKVEIKRTVAAPSVFIFPPSDEQLKSGTASVVCLLNNFYPREAKVQWKVDNALQSGNSQESVTEQDSKDSTYSLSSTLTLSKADYEKHKVYACEVTHQGLSSPVTKSFNRGEC
notes: also called hu.Ab4.H1Ll
- Relative EC50 (human CCR8): 0.88 ratio
- Relative MFI (human CCR8): 0.95 ratio

B2: hu.Ab4.H12L3 (antibody, human IgG1, kappa)
heavy: not shown
light: DYQMTQSPSSLSASVGDRVTITCQASQSISSYLSWYQQKPGKAPKLLIYKASTLASGVPSRFSGSGSGTDFTLTISSLQPEDFATYYCQQGYTSSNIDNIFGGGTKVEIKRTVAAPSVFIFPPSDEQLKSGTASVVCLLNNFYPREAKVQWKVDNALQSGNSQESVTEQDSKDSTYSLSSTLTLSKADYEKHKVYACEVTHQGLSSPVTKSFNRGEC
notes: fucosylated human IgG1; also called huCCR8-Ab4.H12L3.hIgG1; Ab4 variant
- binding result [1]: no binding

B3: hu.Ab5.H13L1 (antibody, human IgG1, kappa)
heavy: not shown
light: DIQVTQSPSSLSASVGDRVTITCQASENIANALAWYQQKPGKPPKFLIYGASNLASGVPSRFSGSGSGTDFTFTISSLQPEDIATYYCQQAYYGNSFVEGTFGGGTKVEIKRTVAAPSVFIFPPSDEQLKSGTASVVCLLNNFYPREAKVQWKVDNALQSGNSQESVTEQDSKDSTYSLSSTLTLSKADYEKHKVYACEVTHQGLSSPVTKSFNRGEC
notes: fucosylated human IgG1; also called Ab5 variant
- binding result (hCCR8 L5A): no binding
- binding result (D14A): binds
- binding result (F21A): binds
- binding result (T10A): binds
- binding result (V12A): binds
